Reference: US20240209076A1 (KODIAK SCIENCES, published 2024)

Assays:
[1] = biological target: T1, human IL-6 (human, UniProt P05231 30-212); test: SPR Biacore, purified Ab on Protein A chip, 37 C
T1 construct: IL-6 flowed over captured antibodies
Description: (§1) Antibodies were captured on a Protein A chip (GE) by injecting 1:20 cell supernatant dilutions at 10 μL/min for 60 seconds. […] The sensor chip was regenerated by a 60 seconds injection of 10 mM Glycine pH 1.7 at the flow rate of 50 μL/min. […] For this setup, 1 μg/mL of purified antibody was injected over a Protein A chip at 10 μL/min for 25 seconds. […] The sensor chip was regenerated by a 60 seconds injection of 10 mM Glycine pH 1.7 at flow rate of 50 μL/min. Data analysis for supernatant and purified samples were performed using BIAevaluation software (GE). All sensorgrams were double reference subtracted and fit using a 1:1 Langmuir binding model.
T1 sequence (P05231 30-212 limits assumed): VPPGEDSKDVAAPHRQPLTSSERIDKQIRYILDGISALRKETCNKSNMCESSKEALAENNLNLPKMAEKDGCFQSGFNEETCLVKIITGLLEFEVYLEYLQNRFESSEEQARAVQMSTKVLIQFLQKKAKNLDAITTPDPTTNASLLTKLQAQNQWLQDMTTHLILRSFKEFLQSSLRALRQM

[2] = biological target: T1, human IL-6; test: SPR Biacore, supernatant Ab on Protein A chip, 37 C
[3] = biological target: T2, human IL-6 (human, UniProt P05231 30-212); test: SPR Biacore, supernatant, Protein A capture, 37 C
Outline: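 Antibodies from 1:20-diluted culture supernatant in HBS-EP+ were captured on a Protein A chip at 37 C, with 10 mM glycine pH 1.7 regeneration. Sensorgrams were double-reference subtracted and fitted to a 1:1 Langmuir model.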
T2 sequence (P05231 30-212 limits assumed): as above

[4] = biological target: T2, human IL-6; test: SPR Biacore, purified, Protein A capture, 37 C
Description: as §1

Binder	Kd [1]	koff [1]	kon [1]	Kd [2]	koff [2]	kon [2]	Kd [3]	koff [3]	kon [3]	Kd [4]	koff [4]	kon [4]
anti-IL-6 antibody, heavy chain WT / light chain M32L, M50D, N52S, M88Q (antibody, IgG1, V domains shown, Full IgG1 (Expi293); VL = variant III) VH: EVQLVESGGGLVQPGGSLRLSCAASGFTFSPFAMSWVRQAPGKGLEWVAKISPGGSWTYYSDTVTGRFTFSLDTSKSTAYLQMNSLRAEDTAVYYCARQLWGYYALDIWGQGTLVTVSS VL: DIQLTQSPSSLSASVGDRVTITCSASISVSYLYWYQQKPGKAPKLLIYDDSSLASGVPSRFSGSGSGTDFTLTISSLQPEDFATYYCQQWSGYPYTFGQGTKVEIK	0.286 nM	0.000319 s⁻¹	1.12e+06 M⁻¹ s⁻¹	0.611 nM	0.000414 s⁻¹	677000 M⁻¹ s⁻¹	–	–	–	–	–	–
Anti-IL-6 antibody, heavy chain S35H, G66D, L100V / light chain M32L, M50D, N52S, M88Q (antibody, IgG1, V domains shown, IgG1; variable domains only; VL is variant III) VH: EVQLVESGGGLVQPGGSLRLSCAASGFTFSPFAMHWVRQAPGKGLEWVAKISPGGSWTYYSDTVTDRFTFSLDTSKSTAYLQMNSLRAEDTAVYYCARQVWGYYALDIWGQGTLVTVSS VL: DIQLTQSPSSLSASVGDRVTITCSASISVSYLYWYQQKPGKAPKLLIYDDSSLASGVPSRFSGSGSGTDFTLTISSLQPEDFATYYCQQWSGYPYTFGQGTKVEIK	–	–	–	–	–	–	0.184 nM	0.000922 s⁻¹	5.01e+06 M⁻¹ s⁻¹	0.238 nM	0.000385 s⁻¹	1.62e+06 M⁻¹ s⁻¹
Anti-IL-6 antibody, heavy chain S35H, G66D, L100A / light chain M32L, M50D, N52S, M88Q (antibody, IgG1, V domains shown, IgG1; variable domains only; VL is variant III) VH: EVQLVESGGGLVQPGGSLRLSCAASGFTFSPFAMHWVRQAPGKGLEWVAKISPGGSWTYYSDTVTDRFTFSLDTSKSTAYLQMNSLRAEDTAVYYCARQAWGYYALDIWGQGTLVTVSS VL: DIQLTQSPSSLSASVGDRVTITCSASISVSYLYWYQQKPGKAPKLLIYDDSSLASGVPSRFSGSGSGTDFTLTISSLQPEDFATYYCQQWSGYPYTFGQGTKVEIK	–	–	–	–	–	–	0.0834 nM	0.00486 s⁻¹	5.82e+07 M⁻¹ s⁻¹	0.109 nM	0.000406 s⁻¹	3.72e+06 M⁻¹ s⁻¹
Anti-IL-6 antibody, heavy chain S35H, G66D / light chain M32L, M50D, N52S, M88Q (antibody, IgG1, V domains shown, IgG1; variable domains only; VL is variant III) VH: EVQLVESGGGLVQPGGSLRLSCAASGFTFSPFAMHWVRQAPGKGLEWVAKISPGGSWTYYSDTVTDRFTFSLDTSKSTAYLQMNSLRAEDTAVYYCARQLWGYYALDIWGQGTLVTVSS VL: DIQLTQSPSSLSASVGDRVTITCSASISVSYLYWYQQKPGKAPKLLIYDDSSLASGVPSRFSGSGSGTDFTLTISSLQPEDFATYYCQQWSGYPYTFGQGTKVEIK	–	–	–	–	–	–	0.403 nM	0.000607 s⁻¹	1.5e+06 M⁻¹ s⁻¹	0.195 nM	0.000238 s⁻¹	1.22e+06 M⁻¹ s⁻¹

Further binders by falling Kd [3], results first:

Kd [1]	koff [1]	kon [1]	Kd [2]	koff [2]	kon [2]	Kd [3]	koff [3]	kon [3]	Kd [4]	koff [4]	kon [4]	Binder
–	–	–	–	–	–	0.204 nM	0.00278 s⁻¹	1.36e+07 M⁻¹ s⁻¹	0.263 nM	0.000481 s⁻¹	1.83e+06 M⁻¹ s⁻¹	Anti-IL-6 antibody, heavy chain S35H, G66D, L100T / light chain M32L, M50D, N52S, M88Q (antibody, IgG1, V domains shown, IgG1; variable domains only; VL is variant III) VH: EVQLVESGGGLVQPGGSLRLSCAASGFTFSPFAMHWVRQAPGKGLEWVAKISPGGSWTYYSDTVTDRFTFSLDTSKSTAYLQMNSLRAEDTAVYYCARQTWGYYALDIWGQGTLVTVSS VL: DIQLTQSPSSLSASVGDRVTITCSASISVSYLYWYQQKPGKAPKLLIYDDSSLASGVPSRFSGSGSGTDFTLTISSLQPEDFATYYCQQWSGYPYTFGQGTKVEIK
–	–	–	–	–	–	0.148 nM	0.000734 s⁻¹	4.97e+06 M⁻¹ s⁻¹	0.149 nM	0.000336 s⁻¹	2.26e+06 M⁻¹ s⁻¹	Anti-IL-6 antibody, heavy chain S35H, G66D, L100Q / light chain M32L, M50D, N52S, M88Q (antibody, IgG1, V domains shown, IgG1; variable domains only; VL is variant III) VH: EVQLVESGGGLVQPGGSLRLSCAASGFTFSPFAMHWVRQAPGKGLEWVAKISPGGSWTYYSDTVTDRFTFSLDTSKSTAYLQMNSLRAEDTAVYYCARQQWGYYALDIWGQGTLVTVSS VL: DIQLTQSPSSLSASVGDRVTITCSASISVSYLYWYQQKPGKAPKLLIYDDSSLASGVPSRFSGSGSGTDFTLTISSLQPEDFATYYCQQWSGYPYTFGQGTKVEIK
